This is an account of results in the supplement of paper PMC10724198.

The subject of series [1] is Saccharomyces cerevisiae. Briefly: protein stability index of tFT-peptide fusion (C-terminal peptide) (PSI (0-1 scale)); higher = more stable (slower turnover). As for the experimental part:
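MPS profiling in S. cerevisiae of the tFT-X12 degron library: putative degron peptides plus stable controls, 12 aa, fused to the C-terminus of a sfGFP-mCherry timer. Cells are FACS-sorted into 8 mCherry/sfGFP bins and deep-sequenced. PSI runs from 0 (unstable) to 1 (stable). Backgrounds are wild type, das1Δ and doa10Δ at 30 °C, and wild type, das1Δ, cdc34-1 and cdc53-1 at 37 °C; 2-3 technical replicates each.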

Series [2] concerns Saccharomyces cerevisiae. The series is described as above. The settings on record: genetic background: wild type; temperature: 30 C.
The mark [3] stands for this setting: genetic background: cdc34-1, temperature: 37 C.
[4] abbreviates: genetic background: cdc53-1, temperature: 37 C.
[5] abbreviates: genetic background: das1 deletion, temperature: 30 C.
[6] abbreviates: genetic background: das1 deletion, temperature: 37 C.
Setting [7] is: genetic background: doa10 deletion, temperature: 30 C.
Where [8] appears, read: genetic background: wild type, temperature: 30 C.
The mark [9] stands for this setting: genetic background: wild type, temperature: 37 C.

± gives the standard deviation of the averaged measurements.
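Further: PSI is a weighted mean of sequencing reads over stability bins, variants kept only with over 10 reads, mCherry proximal and sfGFP distal, peptide attached via GGGS linker.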

In the case of FLLLDFMLVSLV, the protein stability index came out at 0.498 ± 0.015 in series [1] (setting [3]); 0.5175 ± 0.0029 in series [1] (setting [4]); 0.404 ± 0.022 in series [1] (setting [5]); 0.543 ± 0.011 in series [1] (setting [6]); 0.371 ± 0.029 in series [1] (setting [7]); 0.412 ± 0.036 in series [1] (setting [8]). The protein stability index in series [1] (setting [9]) was 0.521 ± 0.037; in series [2], 0.483 ± 0.011.
On to FLLLVVYVSLYS, for which the protein stability index in series [1] (setting [3]) is 0.143 ± 0.0068; in series [1] (setting [4]), 0.207 ± 0.039; in series [1] (setting [5]), 0.183 ± 0.033; in series [1] (setting [6]) it was 0.2973 ± 0.00095; in series [1] (setting [7]), 0.133 ± 0.0063; in series [1] (setting [8]), 0.156 ± 0.032. Further, the protein stability index in series [1] (setting [9]) is 0.224 ± 0.034; in series [2], 0.216 ± 0.1.
Regarding FLLSFFGLVFFW, the protein stability index is 0.39 ± 0.029 in series [1] (setting [3]); 0.437 ± 0.0046 in series [1] (setting [4]); 0.37 ± 0.018 in series [1] (setting [5]); 0.446 ± 0.0048 in series [1] (setting [6]); 0.397 ± 0.0073 in series [1] (setting [7]); 0.374 ± 0.014 in series [1] (setting [8]). In addition, the protein stability index in series [1] (setting [9]) came to 0.449 ± 0.024; in series [2] it was 0.397 ± 0.0048.
FLPLFFLPCLSV: the protein stability index in series [1] (setting [3]) amounted to 0.363 ± 0.0091; in series [1] (setting [4]) it was 0.372 ± 0.031; in series [1] (setting [5]), 0.318 ± 0.011; in series [1] (setting [6]), 0.431 ± 0.015; in series [1] (setting [7]), 0.315 ± 0.011; in series [1] (setting [8]), 0.319 ± 0.019. For the same sequence, the protein stability index in series [1] (setting [9]) was 0.413 ± 0.0059; in series [2], 0.361 ± 0.022.
Turning to FLSPPPFLALLP, the protein stability index in series [1] (setting [3]) came to 0.7 ± 0.03; in series [1] (setting [4]), 0.758 ± 0.022; in series [1] (setting [5]) it was 0.675 ± 0.015; in series [1] (setting [6]), 0.76275 ± 0.00029; in series [1] (setting [7]), 0.691 ± 0.028; in series [1] (setting [8]), 0.6908 ± 0.0045. Further, the protein stability index stood at 0.717 ± 0.014 in series [1] (setting [9]) and 0.723 ± 0.023 in series [2].
In the case of FLSRHFLFLSFV, the protein stability index in series [1] (setting [3]) came out at 0.467 ± 0.036; in series [1] (setting [4]) it was 0.489 ± 0.047; in series [1] (setting [5]) it was 0.505 ± 0.019; in series [1] (setting [6]) it was 0.6779 ± 0.0061; in series [1] (setting [7]), 0.4114 ± 0.0017; in series [1] (setting [8]), 0.308 ± 0.031. In addition, the protein stability index in series [1] (setting [9]) was found to be 0.443 ± 0.006; in series [2] it was 0.409 ± 0.016.
As for FPFHSRPCLPVL, the protein stability index in series [1] (setting [3]) was 0.567 ± 0.0099; in series [1] (setting [4]), 0.576 ± 0.11; in series [1] (setting [5]), 0.475 ± 0.025; in series [1] (setting [6]), 0.622 ± 0.041; in series [1] (setting [7]) it was 0.4581 ± 0.0044; in series [1] (setting [8]), 0.471 ± 0.012. The figures for the protein stability index in series [1] (setting [9]) and in series [2] were 0.5723 ± 0.0015 and 0.518 ± 0.056, respectively.
Take FPTLVRKFINAI: the protein stability index is 0.448 ± 0.024 in series [1] (setting [3]); 0.629 ± 0.052 in series [1] (setting [4]); 0.56 ± 0.016 in series [1] (setting [5]); 0.6825 ± 0.0019 in series [1] (setting [6]); 0.0802 ± 0.011 in series [1] (setting [7]); 0.0817 ± 0.014 in series [1] (setting [8]). Also, the protein stability index is 0.123 ± 0.018 in series [1] (setting [9]) and 0.13 ± 0.0092 in series [2].
Take FRRSFPFPLFLR: the protein stability index in series [1] (setting [3]) is 0.105 ± 0.014; in series [1] (setting [4]) it was 0.0555 ± 0.0048; in series [1] (setting [5]), 0.196 ± 0.031; in series [1] (setting [6]) it was 0.238 ± 0.03; in series [1] (setting [7]), 0.696 ± 0.04; in series [1] (setting [8]), 0.197 ± 0.045. Besides, the protein stability index in series [1] (setting [9]) was determined as 0.219 ± 0.0033; in series [2] it was 0.232 ± 0.12.
Regarding FSCRRISFFLLV, the protein stability index in series [1] (setting [3]) was 0.525 ± 0.014; in series [1] (setting [4]), 0.676 ± 0.039; in series [1] (setting [5]), 0.536 ± 0.043; in series [1] (setting [6]) it was 0.628 ± 0.017; in series [1] (setting [7]), 0.179 ± 0.011; in series [1] (setting [8]), 0.176 ± 0.012. Also, the protein stability index in series [1] (setting [9]) is 0.26 ± 0.015; in series [2], 0.182 ± 0.05.
For FSPLVCLLFFLF, the protein stability index in series [1] (setting [3]) stood at 0.492 ± 0.031; in series [1] (setting [4]), 0.565 ± 0.018; in series [1] (setting [5]) it was 0.424 ± 0.017; in series [1] (setting [6]) it was 0.5725 ± 0.00062; in series [1] (setting [7]), 0.32 ± 0.0052; in series [1] (setting [8]) it was 0.333 ± 0.019. In addition, the protein stability index amounted to 0.4778 ± 0.0016 in series [1] (setting [9]) and 0.3938 ± 0.00098 in series [2].
For FSRFPFVKLSLV, the protein stability index in series [1] (setting [3]) came out at 0.642 ± 0.059; in series [1] (setting [4]), 0.731 ± 0.019; in series [1] (setting [5]), 0.6201 ± 0.0056; in series [1] (setting [6]), 0.70163 ± 0.00051; in series [1] (setting [7]) it was 0.161 ± 0.0044; in series [1] (setting [8]), 0.197 ± 0.048. Further, the figures for the protein stability index in series [1] (setting [9]) and in series [2] were 0.306 ± 0.012 and 0.297 ± 0.016, respectively.
With FSSWPFFSFYLS, the protein stability index in series [1] (setting [3]) was 0.681 ± 0.032; in series [1] (setting [4]), 0.689 ± 0.021; in series [1] (setting [5]), 0.617 ± 0.036; in series [1] (setting [6]), 0.743 ± 0.026; in series [1] (setting [7]) it was 0.415 ± 0.034; in series [1] (setting [8]), 0.392 ± 0.024. In addition, the protein stability index in series [1] (setting [9]) turned out to be 0.6048 ± 0.0018; in series [2], 0.518 ± 0.036.
FSVRLCLFVWGC: the protein stability index in series [1] (setting [3]) was found to be 0.399 ± 0.036; in series [1] (setting [4]) it was 0.481 ± 0.033; in series [1] (setting [5]) it was 0.341 ± 0.028; in series [1] (setting [6]), 0.4684 ± 0.004; in series [1] (setting [7]) it was 0.305 ± 0.0062; in series [1] (setting [8]) it was 0.317 ± 0.015. For the same sequence, the protein stability index in series [1] (setting [9]) stood at 0.4483 ± 0.0025; in series [2] it was 0.436 ± 0.1.
Regarding FSYFFIFFYMVC, the protein stability index in series [1] (setting [3]) was determined as 0.207 ± 0.029; in series [1] (setting [4]), 0.257 ± 0.042; in series [1] (setting [5]) it was 0.234 ± 0.043; in series [1] (setting [6]), 0.378 ± 0.038; in series [1] (setting [7]) it was 0.152 ± 0.01; in series [1] (setting [8]) it was 0.147 ± 0.035. Further, the protein stability index in series [1] (setting [9]) was 0.228 ± 0.0028; in series [2], 0.238 ± 0.0085.
